Data from the supplement of paper PMC9876800.

System: peptide library, one residue held at a place counted from the S/T acceptor
Test: relative phosphorylation of the sub-library (ratio to the mean residue at this position); higher = residue favoured
Settings: human
Procedure, shortened: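 Relative sub-library phosphorylation, a ratio to the mean residue at that position, was obtained by phosphorimaging and densitometry of spots on streptavidin membranes. Before capture, purified recombinant kinases were incubated for 90 min under kinase-specific conditions with 50 μM biotinylated degenerate peptide sub-libraries and 50 μM ATP spiked with γ-32P-ATP. Each sub-library fixed one residue at one position around a central Ser/Thr.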

Chain of CDK13, construct: aa694-1039 (Q14004 694-1039, looked up): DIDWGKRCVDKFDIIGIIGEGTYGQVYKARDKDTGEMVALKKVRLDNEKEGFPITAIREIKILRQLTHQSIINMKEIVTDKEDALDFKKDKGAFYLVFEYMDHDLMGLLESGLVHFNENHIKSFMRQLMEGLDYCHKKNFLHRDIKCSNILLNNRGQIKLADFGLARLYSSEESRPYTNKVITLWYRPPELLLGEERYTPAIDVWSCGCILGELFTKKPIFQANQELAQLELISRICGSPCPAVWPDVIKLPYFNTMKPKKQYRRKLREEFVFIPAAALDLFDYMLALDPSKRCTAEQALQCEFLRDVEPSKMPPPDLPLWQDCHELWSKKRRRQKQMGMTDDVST

SRPK2, construct: Full length (from UniProt P78362)
relative phosphorylation
Settings	at +1	at +2	at +3	at +4	at -1	at -2	at -3	at -4	at -5
A fixed	0.712	1.14	0.669	0.878	0.911	1.6	0.473	0.89	1.01
D fixed	0.338	1.38	0.556	0.992	0.577	2.3	0.364	0.723	0.669
E fixed	0.495	1.2	0.406	0.747	0.626	1.46	0.305	0.685	0.713
F fixed	0.35	1.12	0.427	0.715	0.468	0.64	0.265	0.697	0.971
G fixed	0.597	0.77	0.921	1.16	0.901	1.11	0.363	0.818	1.12
H fixed	0.663	1.01	0.699	1.11	1.6	1.56	0.44	1.11	1.15
I fixed	0.667	0.647	0.369	0.783	0.361	0.298	0.222	0.549	0.593
K fixed	1.6	2.02	1.29	1.51	2.2	0.995	0.918	1.71	1.75
L fixed	0.852	0.772	0.407	0.875	0.671	0.361	0.232	0.644	0.648
M fixed	0.839	0.547	0.383	0.794	0.693	0.538	0.288	0.719	0.754
N fixed	1.11	0.934	0.666	1.02	1.09	1.22	0.354	0.988	0.999
P fixed	4.58	1.22	1.72	1.06	1.44	0.822	0.347	1.84	0.758
Q fixed	1.08	0.939	0.687	1.07	1.66	0.714	0.528	0.956	0.834
R fixed	1.23	1.13	6.39	1.59	1.92	1.63	11	2.28	2.36
V fixed	1.07	0.976	0.442	0.815	0.726	0.449	0.246	0.696	0.769
W fixed	0.407	0.581	0.502	1.03	0.522	0.614	0.351	0.898	1.07
Y fixed	0.412	0.618	0.474	0.863	0.629	0.695	0.319	0.794	0.829
pThr fixed	0.513	0.839	0.67	0.956	0.411	0.555	0.363	0.65	0.55
pTyr fixed	0.696	0.733	0.646	0.951	0.763	1.09	0.45	1.25	0.809

CDK13, construct: aa694-1039 (from UniProt Q14004)
relative phosphorylation
Settings	at +1	at +2	at +3	at +4	at -1	at -2	at -3	at -4	at -5
A fixed	0.344	0.946	0.818	0.867	1.13	1.18	1.03	1.07	1.13
D fixed	0.22	0.631	0.449	1.07	0.485	0.477	0.742	0.927	0.951
E fixed	0.222	0.569	0.42	0.973	0.492	0.515	0.76	0.983	0.817
F fixed	0.319	1.03	0.579	0.816	0.876	0.712	0.85	1.17	1.23
G fixed	0.908	1.27	0.797	1.33	1.45	1.77	2.11	1.16	0.982
H fixed	0.301	1.17	1.71	1.44	0.893	0.831	0.889	1.02	1.1
I fixed	0.293	0.835	0.822	0.746	0.382	0.933	0.995	0.868	0.933
K fixed	0.307	1.31	0.993	0.893	1.12	0.542	0.581	0.846	0.837
L fixed	0.348	0.845	0.558	0.743	0.845	1.03	0.922	0.953	0.923
M fixed	0.336	1.11	0.506	0.824	1.64	1.31	0.965	1.01	0.855
N fixed	0.305	1.02	0.739	1.01	0.968	0.685	0.696	0.889	0.784
P fixed	11.6	0.82	1.41	0.98	1.02	1.71	1.44	1.15	1.17
Q fixed	0.287	0.8	0.764	0.903	1.18	0.736	0.672	0.753	0.933
R fixed	0.315	1.7	4.1	0.956	1.68	1.16	1.2	0.861	0.898
V fixed	0.315	0.812	0.717	0.779	0.511	0.942	0.877	0.825	0.929
W fixed	0.306	0.937	0.82	1.59	1.23	1.43	1.07	1.4	1.24
Y fixed	0.306	1.2	0.801	1.09	1.09	1.03	1.2	1.11	1.27
pThr fixed	0.386	0.581	0.553	1.13	0.349	0.479	0.922	0.831	1.02
pTyr fixed	0.405	0.576	0.702	1.27	1.16	0.698	0.88	0.961	0.865

CAMK4, construct: Full length (from UniProt Q16566)
relative phosphorylation
Settings	at +1	at +2	at +3	at +4	at -1	at -2	at -3	at -4	at -5
A fixed	0.518	0.587	0.723	0.805	0.66	0.761	0.61	0.815	0.598
D fixed	0.574	0.588	0.925	0.978	0.92	0.327	0.27	0.479	0.347
E fixed	0.727	0.483	0.846	0.999	0.722	0.386	0.404	0.705	0.364
F fixed	3.32	0.95	1.12	1	1.02	0.667	0.559	1.01	1.75
G fixed	0.745	0.525	0.905	0.847	0.692	0.573	0.566	0.861	0.631
H fixed	0.86	1.99	1.19	1.08	1.18	1.3	1.32	1.17	0.781
I fixed	0.95	1.24	0.874	0.837	0.711	0.484	0.449	0.865	1.22
K fixed	0.738	0.848	0.896	0.942	1.35	2.46	2.9	1.67	1.02
L fixed	0.822	1.25	1.04	1.06	1.05	0.547	0.432	1.01	1.85
M fixed	1.23	1.15	1	0.978	0.99	0.783	0.671	1.17	1.3
N fixed	0.977	1.08	1.21	1.14	1.36	1.06	0.723	0.962	0.651
P fixed	0.167	0.652	0.919	1.24	1.09	0.38	0.706	0.642	0.827
Q fixed	1.12	0.862	0.904	1.17	1.21	1.34	0.854	0.951	0.755
R fixed	0.929	1.24	0.977	1.04	1.27	3.93	4.59	1.73	1.48
V fixed	0.815	1.08	0.8	0.739	0.744	0.501	0.408	0.938	0.98
W fixed	1.25	1.16	1.39	1.12	0.93	0.744	0.841	0.949	1.1
Y fixed	1.26	1.33	1.27	1.03	1.1	0.756	0.695	1.09	1.35
pThr fixed	0.934	0.905	0.892	1.02	0.56	0.621	0.672	0.718	0.63
pTyr fixed	0.811	0.793	0.936	0.824	1.09	0.424	0.482	0.653	0.661
